Assay [1] concerns the target T1, human IL-1β (human, UniProt P01584 117-269). Put plainly: cell-based or functional assay.
The target in assay [2] is T1, human IL-1β. Put plainly: cell-based or functional assay. This is another data set of the same source.
Assay [3] deals with T1, human IL-1β. Put plainly: KinExA kinetic exclusion assay. The protocol:
KD values represent the binding dissociation constants for the respective antibody-IL-1β complexes. KD was calculated as the ratio of “off rate” (rate of dissociation for the antibody-IL-1β complex) to “on rate” (rate of association for the antibody-IL-1β complex).
Background: In KinExA the mixture passes briefly over coated beads that capture the unbound partner.

Assay [4] concerns the target T1, human IL-1β. Put plainly: KinExA kinetic exclusion assay. The source says:
The KINEXA™ device performs a kinetic exclusion assay, and fits the data to various theoretical curves and thus determines KD as well as other properties, such as 95% confidence intervals for KD. The KINEXA™ device is generally more sensitive than other devices (e.g., a BiaCore device) for analysis of affinity characteristics such as dissociation constants and off-rates.
This is another data set of the same source.

In assay [5] the target is T1, human IL-1β. Description: cell-based or functional assay. This is another data set of the same source.
The target in another assay is T2, rhesus macaque IL-1β (rhesus macaque, UniProt P48090 117-269).
T2 sequence (looked up): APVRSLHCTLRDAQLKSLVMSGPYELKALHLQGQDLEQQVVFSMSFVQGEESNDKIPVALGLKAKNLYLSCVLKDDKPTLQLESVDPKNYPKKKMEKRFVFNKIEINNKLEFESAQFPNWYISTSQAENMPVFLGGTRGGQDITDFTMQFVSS
Put plainly: cell-based or functional assay.

Assay [6] deals with T3, soluble IL-1 receptor type I (IL-1 sRI) (UniProt P14778 18-336).
T3 construct: extracellular domain; also called IL-1RI
T3 sequence (looked up): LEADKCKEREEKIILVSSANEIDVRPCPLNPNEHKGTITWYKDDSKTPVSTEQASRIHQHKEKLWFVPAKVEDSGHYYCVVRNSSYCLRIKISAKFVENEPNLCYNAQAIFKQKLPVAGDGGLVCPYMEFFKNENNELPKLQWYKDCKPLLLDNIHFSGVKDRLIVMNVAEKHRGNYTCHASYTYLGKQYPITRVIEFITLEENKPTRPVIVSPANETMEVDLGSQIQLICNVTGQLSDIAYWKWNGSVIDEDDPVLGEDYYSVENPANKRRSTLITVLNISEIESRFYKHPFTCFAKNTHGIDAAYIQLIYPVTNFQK
Put plainly: Biacore, AB7 immobilized on CM-5 chip, IL-1 sRI injected. (Surface plasmon resonance follows binding to a sensor surface in real time, without labels.)
Method: Using HBS-EP (Biacore®, Inc.) as running buffer, the temperature was set to 25° C., the flow rate was set to 10 μL/min, and the flow path was directed to flow cell 2 only. 135 μL of each of NHS and ECD solutions (Biacore®, Inc.) were mixed, and 70 μL of the NHS/ECD solution was immediately injected in the flow path. […] To prepare a reference surface, the flow path was changed to flow cell 1 only. 135 μL of each of NHS and ECD solutions (Biacore®, Inc.) were mixed, and 70 μL of the NHS/ECD solution was immediately injected in the flow path, followed by 70 μL 1M Ethanolamine (Biacore®, Inc.).
The flow rate was set to 10 μL/min. The flow path for the Biacore® instrument was set to flow cells 1 and 2, and reference subtraction of flowcell 2 from flowcell 1 was used to determine a response differential.

In another assay the target is T4, guinea pig IL-1β (guinea pig, UniProt Q9WVG1 115-266, limits assumed).
T4 sequence (looked up): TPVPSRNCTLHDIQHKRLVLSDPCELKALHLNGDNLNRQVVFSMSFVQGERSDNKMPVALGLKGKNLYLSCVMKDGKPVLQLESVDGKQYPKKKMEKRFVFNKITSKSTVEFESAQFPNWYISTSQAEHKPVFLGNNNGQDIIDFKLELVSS
Put plainly: immunoprecipitation with AB7 and protein A-Sepharose from PBMC supernatant, Western blot with AB7. The method, then:
(§1) Fresh heparanized whole blood from rhesus macaque, cynomolgus monkey, dog, guinea pig and rabbit was obtained from Charles River Labs. The whole blood was separated by Ficoll density gradient centrifugation and peripheral blood mononuclear cells (PBMC's) were isolated. For each species' PBMC, 2.5×10⁵ cells/ml were incubated in peripheral RPMI media with and without 50 ng/ml Lipopolysaccharide LPS (E. Coli 055:B5), and supernatants were collected at 24 hours post-stimulation. LPS is intended to stimulate the production of IL-1β by the PBMC's. […] Human IL-1β (Peprotech) was spiked into RPMI and run as immunoprecipliation/Western blot controls. After centrifugation and washing of the Protein A-Sepharose beads, all samples were loaded onto a SDS-PAGE gel and run at 120V for 1 hour. […] A secondary goat anti-human IgG antibody conjugated with horseradish peroxidase (HRP) was added following wash steps and detection was with one step tetramethyl benzidine (TMB) solution.
On the technique in general: A western blot detects proteins with antibodies after separation by electrophoresis.

The target in a further assay is T5, dog IL-1β (dog, UniProt Q28292 115-266).
T5 sequence (looked up): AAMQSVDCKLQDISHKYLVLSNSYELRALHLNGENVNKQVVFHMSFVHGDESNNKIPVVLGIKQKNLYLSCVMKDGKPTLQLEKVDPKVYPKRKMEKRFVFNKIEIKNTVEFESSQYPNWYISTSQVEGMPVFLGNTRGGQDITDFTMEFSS
Put plainly: immunoprecipitation with AB7 from LPS-stimulated PBMC supernatant, Western blot with AB7 (FIG. 16). The method, then: as §1

In a further assay the target is T6, rabbit IL-1β (rabbit, UniProt P14628 117-268).
T6 sequence (looked up): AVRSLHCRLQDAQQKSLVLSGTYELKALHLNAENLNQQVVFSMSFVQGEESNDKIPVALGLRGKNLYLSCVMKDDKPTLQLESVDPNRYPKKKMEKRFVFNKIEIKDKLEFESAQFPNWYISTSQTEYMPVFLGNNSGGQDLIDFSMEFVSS
Described as above. The method, then: as §1

6 molecules from US20080044414A1 (published 2008) can be followed below.

Where a chain is given by its changes, count along the chain named. Values joined by “and” are separate entries in the source; they are usually repeats but may differ in a detail not shown here. Identical values can stand only once. Like-named read-outs stand apart in the source and are kept apart here.

As usually defined, the Kd is the constant that tells how readily two partners part at equilibrium. A low value points to a tighter complex.

B1: AB5 (antibody, V domains shown)
VH: QVTLKESGPGILKPSQTLSLTCSFSGFSLSTSGMGVGWIRQPSGKGLEWLAHIWWDGDESYNPSLKTQLTISKDTSRNQVFLKITSVDTVDTATYFCARNRYDPPWFVDWGQGTLVTVSS
VL: DIQMTQTTSSLSASLGDRVTISCRASQDISNYLSWYQQKPDGTVKLLIYYTSKLHSGVPSRFSGSGSGTDYSLTISNLEQEDIATYFCLQGKMLPWTFGGGTKLEIK
notes: also called AB5 (invention)
Turning to B1, the “IC50, inhibition of IL-1β stimulated release of IL-6 from human MRC5 fibroblasts” value (“IC50, inhibition … from human MRC5 fibroblasts” below) with human IL-1β [1] came to 0.014 nM. Moreover, the “IC50, inhibition of IL-1β stimulated release of IL-6 from human fibroblasts” value with human IL-1β [2] came to 4.9 pM. Also, the equilibrium dissociation constant (Kd) stood at 0.261 pM in the assay with human IL-1β [3] and 0.24 pM with human IL-1β [4].

B2: AB2 (antibody, V domains shown)
VH: B1 VH with N100V
VL: B1 VL
For the molecule B2, the “IC50, inhibition of IL-1β stimulated release of IL-6 from human fibroblasts (FIG. 10)” value (from here on “IC50, inhibition … (FIG. 10)”) in the assay with human IL-1β [5] was 0.076 nM.

B3: AB3 (antibody, V domains shown)
VH: B1 VH with N100F
VL: B1 VL
On to B3, for which the “IC50, inhibition … (FIG. 10)” value with human IL-1β [5] was 0.214 nM.

B4: AB1 (antibody, V domains shown)
VH: B1 VH with N100A
VL: B1 VL
notes: also called AB1 (invention)
Turning to B4, in the assay with human IL-1β [5], the “IC50, inhibition … (FIG. 10)” value came to 0.029 nM; the “IC50 of an individual assay, IL-6 release from human fibroblasts” value was 35 pM and 30 pM and 52 pM; the “mean IC50, inhibition of IL-1β stimulated release of IL-6 from human fibroblasts” value stood at 66.7 pM. In addition, the “IC50, inhibition … from human MRC5 fibroblasts” value with human IL-1β [1] turned out to be 0.15 nM. In addition, binding with human IL-1β [3] was put at a Kd of 18.6 pM.

B5: AB-control (antibody, V domains shown)
VH: B1 VH with Q68R, D74N, S86T
VL: B1 VL with S72F
notes: must be checked against the listing
For the molecule B5, in the assay with human IL-1β [5], the “IC50 of an individual assay, IL-6 release from human fibroblasts” value is 5 pM and 4.9 pM; the “mean IC50, inhibition of IL-1β stimulated release of IL-6 from human fibroblasts” value turned out to be 8.9 pM. The “IC50, inhibition … from human MRC5 fibroblasts” value in the assay with human IL-1β [1] was found to be 0.017 nM. This molecule returned a dissociation constant (Kd) in the assay with human IL-1β [3] of 3.06 pM.

B6: AB7 (antibody, V domains shown)
VH: QVQLQESGPGLVKPSQTLSLTCSFSGFSLSTSGMGVGWIRQPSGKGLEWLAHIWWDGDESYNPSLKSRLTISKDTSKNQVSLKITSVTAADTAVYFCARNRYDPPWFVDWGQGTLVTVSS
VL: DIQMTQSTSSLSASVGDRVTITCRASQDISNYLSWYQQKPGKAVKLLIYYTSKLHSGVPSRFSGSGSGTDYTLTISSLQQEDFATYFCLQGKMLPWTFGQGTKLEIK
notes: Human engineered antibody
For B6, the “mean IC50, inhibition of IL-1β stimulated proliferation of D10.G4.1 cells (10 pg/ml recombinant rhesus IL-1β)” value with rhesus macaque IL-1β is 2.7 pM. The binding result in assay [6] is “no binding (tested: 10 ug/mL)”; with guinea pig IL-1β, “no binding”; with dog IL-1β it was “binds”; with rabbit IL-1β, “binds”.
